Experimental data reported in patent US10597674B2, “HPPD variants and methods of use” (BASF Agricultural Solutions Seed, US LLC, priority 2015, dated 2020).

Assays:
[1] = target: HPPD polypeptides (wild-type SEQ ID NO:1 and mutants) (Pseudomonas sp., UniProt P80064, A172V/A339V/A53E/D148E/D329H/D45N/E105D/E287Q/E300V/E334P/F143Y/G286D/G335D/H150N/H254A/H63N/I158V/I187A/I249V/I344V/K92N/L18F/M263R/N24G/N280D/N336S/P267G/S245T/S257K/S301E/T205S/T269E/V65I); settings: 15 μM Cmpd. 1, high substrate concentration (Table 3a)
[2] = test system: HPPD polypeptides (purified, wild-type SEQ ID NO:1 and mutants); assay: Coupled HPPD activity assay: ki determination, competitive inhibition fit; assay type: biochemical, Pseudomonas fluorescens; settings: inhibitor Cmpd. 1
Description: For the generation of purified HPPD polypeptide samples, cells were grown for 3 h at 37° C. in 5 ml LB medium containing 100 μg/ml ampicillin in a 50 ml shaker flask at 140 rpm. One ml of this starter culture was used as inoculum for the expression culture. […] At an OD600 of about 0.6, IPTG (Roth, Karlsruhe, Germany) was added to a concentration of 0.4 mM. After further growth for 60 min at 37° C., the temperature was reduced to 28° C. and growth continued for another 18 h at 140 rpm. Cells were harvested by centrifugation at 4° C., 3200 g for 30 min in 50 ml Falcon tubes and cell pellets were stored at −80° C. […]
The resulting protein samples were re-buffered into 20 mM Tris, 20% Glycerol (pH 7.8) (Sigma-Aldrich, St. Louis, USA) by use of Zeba™ Spin Desalting Columns, 7K MWCO, 10 mL (Thermo Fisher Scientific, Waltham, USA) and analysed for protein concentration and purity by Abs280 (NANODROP 8000, Thermo Fisher Scientific, Waltham, USA) and SDS-PAGE. […]
The mutant HPPD polypeptides represented here are examples by a way of illustration, not by a way of limitation. […] The inhibitor concentrations were adopted for the respective HPPD polypeptide/inhibitor pairs to generate dynamic data, i.e. variants with lower tolerance were analyzed in a range of lower inhibitor concentrations, and concentrations of up to 1200 μM were used for variants with maximized tolerance. […]

[3] = test system: transgenic soybean T0 events; assay: Greenhouse spray test of T0 soybean events, herbicide tolerance rating 0-3; assay type: in vivo; settings: Cmpd. 1 300 g AI/ha
Description: Tolerant green shoots were transferred to rooting media or grafted. Rooted plantlets were transferred to the greenhouse after an acclimation period. Plants containing the transgene were then sprayed with HPPD inhibitor herbicides, as for example with mesotrione at a rate of 300-600 g AI/ha, or with Cmpd. […] Five to ten days after the application, the symptoms due to the application of the herbicide were evaluated and compared to the symptoms observed on wild-type plants under the same conditions.
For example, T0 soybean plants having a “plant expression cassette”, which includes an HPPD inhibitor tolerant HPPD polypeptide of the present invention, were tested towards the tolerance of Cmpd. 1.
Prior greenhouse trials with the transgenic plants, soybean transformants were routinely analyzed for the expression and presence of the transgenes using the ELISA protein detection method (see detailed description under item D and H). Only plants recovering in the selection media and having a detectable HPPD transgene protein expression were used for the herbicide tolerance analysis. A DeVries Tracker Sprayer was calibrated prior to each spraying. The chemical formulation used for Cmpd. 1 was supplemented with ammonium sulfate and methylated rape seed oil. Spray tests were conducted with a concentration, which equals to 300 grams AI per hectare (300 g AI/ha). Tolerance was evaluated 5 days after spraying. […] A rating of “3” was assigned to plants showing good tolerance, i.e. less than 10% of the leaf area from the top three trifoliate leaves showing chlorosis or only very slight bleaching.

[4] = test system: E. coli cells expressing an HPPD polypeptide; assay: Brown Color Assay on solid LB-agar, visual score of brown pigment; assay type: cell-based; parameters: key to brown pigment formation: +++: a dark brown coloring as seen for E. coli cells expressing one of the respective mutant HPPD polypeptide without inhibitor; ++: medium brown pigmentation; +: light brown pigmentation; 0: no brown pigmentation development was detected on the LB agar plates
Description: Mutant HPPD polypeptides were analyzed using a brown color assay (WO2014/043435). Bacterial cells expressing the mutant HPPD polypeptide according to the invention were assayed in 96 well format for HPPD inhibitor tolerance by spotting on solid media containing LB-agar, selection agent for the expression vector pSE420(RI)NX (WO2014/043435), 5 mM tyrosine (Sigma-Aldrich, St. Louis, USA), 42 mM succinate (Sigma-Aldrich, St. Louis, USA) and six different concentrations of the HPPD inhibitor herbicide Cmpd. 1 (0-500 μM). In the brown color assay, an overnight culture of the E. coli cells expressing one of the respective mutant HPPD polypeptides were diluted to an OD600 of 1 and 10 μl extract was spotted in triplicates on plates containing 0, 25, 50, 100, 250, or 500 μM of Cmpd. 1. Plates were covered with airpore tape and incubated at 30 degrees C. After 24 hours, the cells were kept in darkness at room temperature and after 7 days the brown pigment formation was scored visually. In the presence of an HPPD inhibitor herbicide, this pigment formation is inhibited and the color of the agar plate will not alter, unless an HPPD inhibitor herbicide tolerant HPPD polypeptide is expressed and active. […] The “++” and “+” scores a medium and light brown pigmentation, respectively, and the “0” means that no brown pigmentation development was detected on the LB agar plates.

[5] = test system: transgenic soybean T0 events; assay: Additional greenhouse trials of T0 soybean events, leaf damage score 0-100 as percentiles; assay type: in vivo; settings: Cmpd. 1 300 g AI/ha, five days
Procedure, shortened: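 Independent T0 events (21 to 94 per construct, single cassette insertion) expressing mutant HPPD were sprayed with HPPD inhibitor herbicide in the greenhouse. Leaf damage scored 5 days after application from 0 (no damage) to 100 (complete bleaching). Scores reported as percentile distributions (25th, median, 75th) per construct.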

[6] = test system: E. coli cells expressing an HPPD polypeptide; assay: Brown color bioassay in liquid culture, residual brown color formation (BCF), OD440 after 96 hours; assay type: cell-based; settings: Cmpd. 1 1000 μM, 96 hours
Procedure, shortened: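 E. coli expressing HPPD variants were grown at 30 degrees Celsius from OD600 0.3-0.5 in LB with 5 mM HPP, with or without herbicide (e.g. Cmpd. 1, 1000 μM). After 96 hours, supernatant OD440 was measured; residual brown colour formation compares pigment with and without inhibitor.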

[7] = test system: transgenic T1 soybean events; assay: Field trials of T1 soybean events, leaf damage eight days after application; assay type: in vivo
Description: Soybean plants expressing an HPPD inhibitor tolerant polypeptide of the present invention alone, or along with a gene conferring tolerance to glyphosate and/or a gene conferring tolerance to glufosinate or having a “plant expression cassette”, which includes only an HPPD inhibitor tolerant polypeptide of the present invention, were tested for tolerance to different HPPD inhibitor herbicide chemical classes. The transgenic plants were routinely analyzed for the expression and presence of the transgenes using the ELISA protein detection method (see detailed description under item D and H). Only plants recovering in the selection media and having a detectable HPPD transgene protein expression were regenerated, transferred to the greenhouse and used at V2-V4 growth stage for the HPPD inhibitor herbicide tolerance analysis of the T0 soybean events in the greenhouse (Example 6). The chemical formulation with HPPD inhibitor herbicides was supplemented with ammonium sulfate and methyl ester rapeseed oil. Herbicide tolerance evaluation was taken 5-21 days after spraying. The best performing independent T0 soybean events were selfed to produce T1 soybean seeds. In the field trails, the advanced T1 soybean seeds were planted and treated with either 210 g/ha of isoxaflutole or 150 g/ha of Cmpd.
In Table 10, the frequency of the soybean events showing a good tolerance, i.e. equal or less than 15% damage of the total leaf area are summarized

[8] = 150 g/ha Cmpd. 1, stage V2-V4, eight days after application
[9] = 210 g/ha isoxaflutole, stage V2-V4, eight days after application

B1: SEQ ID NO:19 (protein)
chain: MADLYENPMGLMGFEFIEFASPTPGTLEPIFEIMGFTKVATHRSKNVHLYRQGEINLILNNEPNSIASYFAAEHGPSVCGMAFRVKDSQKAYNRALELGAQPIHIDTGPMELNLPAIKGIGGAPLYLIDRFGEGSSIYDIDFVYLEGVERNPVGAGLKVIDHLTHNVYRGRMVYWANFYEKLFNFREARYFDIKGEYTGLTSKAMSAPDGMIRIPLNEESSKGAGQIEEFLMQFNGEGIQHVAFLTDDLVKTWDALKKIGMRFRTAPGDEYYEMLEGRLPDHGEPVDQLQARGILLDGSSVEGDKRLLLQIFSETLMGPVFFEFIQRKGHDGFGPDSFKVLFESVERDQVRRGVLTAD
modifications: mutant HPPD polypeptide
Residual activity [1]: 68% | Residual turnover [1]: 79% | increase of ki towards Cmpd. 1 compared to SEQ ID NO:2 [2]: ~30 fold

B2: SEQ ID NO: 2: prior art mutant HPPD polypeptide (WO2014/043435): E335P G336W K339A A340Q (protein)
chain: MADLYENPMGLMGFEFIEFASPTPGTLEPIFEIMGFTKVATHRSKNVHLYRQGEINLILNNEPNSIASYFAAEHGPSVCGMAFRVKDSQKAYNRALELGAQPIHIDTGPMELNLPAIKGIGGAPLYLIDRFGEGSSIYDIDFVYLEGVERNPVGAGLKVIDHLTHNVYRGRMVYWANFYEKLFNFREARYFDIKGEYTGLTSKAMSAPDGMIRIPLNEESSKGAGQIEEFLMQFNGEGIQHVAFLTDDLVKTWDALKKIGMRFMTAPPDTYYEMLEGRLPDHGEPVDQLQARGILLDGSSVEGDKRLLLQIFSETLMGPVFFEFIQRKGDDGFGPWNFAQLFESIERDQVRRGVLTAD
modifications: mutant HPPD polypeptide
notes: prior art mutant HPPD polypeptide (WO2014/043435): E335P G336W K339A A340Q
number of events with Herbicide Tolerance Rating 0 ([3]; five days after application): 5 | Percentage events rated “2 & 3” ([3]; five days, less than 50% leaf damage): 83.3% | number of events with Herbicide Tolerance Rating 1 ([3]; five days, rating 1 = slight tolerance, 50-95% leaf damage): 10 | number of events with Herbicide Tolerance Rating 2 ([3]; five days, rating 2 = moderate tolerance, 10-49% of leaf area): 26 | number of events with Herbicide Tolerance Rating 3 ([3]; five days, rating 3 = good tolerance, less than 10% of leaf area): 49 | brown pigment formation ([4]; 25 μM Cmpd. 1, scored after 7 days): ++ | brown pigment formation ([4]; 50 μM Cmpd. 1, scored after 7 days): ++ | brown pigment formation ([4]; 100 μM Cmpd. 1, scored after 7 days): ++ | brown pigmentation, in words ([4]; 250 μM Cmpd. 1): only a slight brown pigmentation | brown pigment formation ([4]; 250 μM Cmpd. 1, scored after 7 days): + | brown pigmentation, in words ([4]; 500 μM Cmpd. 1): lost their brown pigmentation | brown pigment formation ([4]; 500 μM Cmpd. 1, scored after 7 days): 0 | leaf damage score, Interquartile range ([5]; 75th minus 25th percentile): 30.0 | leaf damage score, 25th percentile ([5]; scale 0 (no damage) to 100 (complete bleaching)): 15.0 | leaf damage score, 75th percentile ([5]; scale 0-100): 45.0 | leaf damage score, 90th percentile ([5]; scale 0-100): 87.0 | leaf damage score, Median ([5]; scale 0-100): 20.0 | brown pigmentation in the presence of the HPPD inhibitor, in words [6]: did not produce a substantial brown pigmentation | Frequency in the population (events with ≤15% leaf damage) [7, 8]: 41% | Independent events with ≤15% leaf damage after spray [7, 8]: 16 | Frequency in the population (events with ≤15% leaf damage) [7, 9]: 26% | Independent events with ≤15% leaf damage after spray [7, 9]: 10
